From US20070020327A1 come the findings set out here.

One assay has as its target HLA-A*0206 (human). The assay can be described thus: competition with 125I-labelled standard peptide 941.01 for purified HLA, gel filtration. Particulars: remark: other sources report otherwise; scale: ratio. A general note: Size exclusion chromatography separates by hydrodynamic size, large species first.
Regarding GITSWGPEPCA (modifications not checked) [Kallikrein (hK2) peptide … (position 225)], the binding affinity ratio is 0.0001.

The same assay, now with this note: scale: ratio.
Turning to GAVPLIQSRIV (modifications not checked) [Kallikrein (hK2) peptide … (position 16)], the binding affinity ratio was found to be 0.0003.

The target in a further assay is HLA-A*0201 (human). The assay is described as above. Particulars: remark: other sources report otherwise; scale: ratio.
Regarding GITSWGPEPCA (modifications not checked) [Kallikrein (hK2) peptide … (position 225)], the binding affinity ratio amounted to 0.0009.

Staying with this assay, now noted: scale: ratio.
As to GAVPLIQSRIV (modifications not checked) [Kallikrein (hK2) peptide … (position 16)], the binding affinity ratio turned out to be 0.0001.

The target of the next assay is HLA-A*0201 (human). Put plainly: competition for purified HLA with 125I-labelled standard peptide 941.01 [..] as competitor, gel filtration. Particulars: scale: ratio.
For the molecule GVLVHPQWV (modifications not checked) [… (Kallikrein position 52 / PSA position 48, 9-mer)], the binding affinity ratio worked out at 0.0003.

As to GVQRGNILNL (modifications not checked) [… (PSM position 252, 10-mer)], the binding affinity ratio came out at 0.0001.

Turning to HVISNDVCA (modifications not checked) [… (PSA position 173, 9-mer)], the binding affinity ratio was found to be 0.0001.

For the molecule IAEAVGLPSI (modifications not checked) [… (PSM position 283, 10-mer)], the binding affinity ratio came to 0.0001.

With HTVPLSEDQL (modifications not checked) [… (PAP position 144, 10-mer)], the binding affinity ratio turned out to be 0.0002.

For the next assay, the target named is HLA-A*0201 (human). The assay can be described thus: inhibition of 125I probe peptide binding to purified HLA, gel filtration; ratio = IC50 standard/IC50 test.
Settings: not given
On to AAPLILSRIV (modifications not checked), for which the binding affinity ratio was 0.0002.

On to AALFPPEGV (modifications not checked) [… (PAP, position 121)], for which the binding affinity ratio was determined as 0.0002.

On to AAAETLSEV (modifications not checked) [… (PSM, position 741)], for which the binding affinity ratio was found to be 0.0002.

Take AASLSLGFL (modifications not checked) [… (PAP, position 11)]: the binding affinity ratio was 0.0002.

As to AQVHPQKVT (modifications not checked) [… (PSA, position 181)], the binding affinity ratio came out at 0.0002.

Consider AAHCIRNKSV (modifications not checked) [… (PSA, position 59)], for which the binding affinity ratio was 0.0002.

Turning to ATARRPRWL (modifications not checked) [… (PSM, position 13)], the binding affinity ratio is 0.0002.

Take ATLGKLSGL (modifications not checked) [… (PAP, position 189)]: the binding affinity ratio worked out at 0.0005.

On to AAPLILSRI (modifications not checked), for which the binding affinity ratio worked out at 0.0002.

On to ALPERPSL (modifications not checked) [ALPERPSL (PSA, position 231)], for which the binding affinity ratio amounted to 0.0002.

As to ALPERPSLYT (modifications not checked) [… (PSA, position 231)], the binding affinity ratio is 0.0008.

As to ATEDTMTKL (modifications not checked) [… (PAP, position 227)], the binding affinity ratio is 0.0002.

In a further assay the target is HLA-A*0201 (human). The assay can be described thus: competition binding to purified HLA, 125I-labelled standard peptide, gel filtration; ratio = IC50 standard / IC50 test peptide.
Settings: not given
As for EIASKFSERL (modifications not checked) [… (PSM, position 641, 10 amino acids)], the binding affinity ratio is 0.0001.

Turning to DLFGIWSKV (modifications not checked) [… (PAP, position 201, 9 amino acids)], the binding affinity ratio worked out at 0.0002.

DLVLSIAL (modifications not checked) [DLVLSIAL (Kallikrein, position 3, 8 amino acids)]: the binding affinity ratio was determined as 0.0001.

On to DMKINCSGKI (modifications not checked) [… (PSM, position 191, 10 amino acids)], for which the binding affinity ratio was determined as 0.0001.

Turning to DLHVISNDV (modifications not checked) [… (PSA, position 171, 9 amino acids)], the binding affinity ratio is 0.0003.

In the case of DTMTKLREL (modifications not checked) [… (PAP, position 230, 9 amino acids)], the binding affinity ratio was 0.0002.

As for DMSLLKNRFL (modifications not checked) [… (PSA, position 98, 10 amino acids)], the binding affinity ratio is 0.0001.

With DAVKVMDLPT (modifications not checked) [… (PSA, position 130, 10 amino acids)], the binding affinity ratio worked out at 0.0001.

Take DLPTQEPA (modifications not checked) [DLPTQEPA (PSA, position 136, 8 amino acids)]: the binding affinity ratio was found to be 0.0001.

Consider DVCAQVHPQKV (modifications not checked) [… (PSA, position 178, 11 amino acids)], for which the binding affinity ratio was determined as 0.0001.

With DLHVISNDVCA (modifications not checked) [… (PSA, position 171, 11 amino acids)], the binding affinity ratio amounted to 0.0001.

On to EIVRSFGTL (modifications not checked) [… (PSM, position 397, 9 amino acids)], for which the binding affinity ratio was 0.0002.

EAVGLPSIPV (modifications not checked) [… (PSM, position 285, 10 amino acids)]: the binding affinity ratio was 0.0002.

The same assay, now with this note: remark: other sources report otherwise.
As for DLVLSIALSV (modifications not checked) [… (Kallikrein, position 3, 10 amino acids)], the binding affinity ratio was found to be 0.001.

Regarding DLPTQEPAL (modifications not checked) [… (PSA, position 136, 9 amino acids)], the binding affinity ratio is 0.0003.

The target of another assay is HLA-A*0301 (human). The assay can be described thus: competition with 125I-labelled standard peptide for purified HLA, gel filtration.
Settings: not given
Regarding LGEYIRKRYR (modifications not checked) [PAP 81 peptide …], the binding affinity ratio (IC50 of standard peptide / IC50 of test peptide) was 0.0003.

Regarding LGIASGRAR (modifications not checked) [PSM 528 peptide …], the binding affinity ratio (IC50 of standard peptide / IC50 of test peptide) was found to be 0.0006.

The target of a further assay is HLA-A*0201 (human). The assay can be described thus: competition with 125I-labelled standard peptide 941.01 for purified HLA-A*0201, gel filtration.
Settings: not given
On to RLSEPAELT (modifications not checked) [… (PSA, position 121)], for which the binding affinity ratio (IC50 of standard peptide / IC50 of test peptide) amounted to 0.0003.

SIEPEEFL (modifications not checked) [SIEPEEFL (PSA, position 155)]: the binding affinity ratio (IC50 of standard peptide / IC50 of test peptide) is 0.0001.

As to SIEPEEFL (modifications not checked) [SIEPEEFL (Kallikrein, position 159)], the binding affinity ratio (IC50 of standard peptide / IC50 of test peptide) came to 0.0001.

For SIEGNYTLRV (modifications not checked) [… (PSM, position 455)], the binding affinity ratio (IC50 of standard peptide / IC50 of test peptide) is 0.0001.

Regarding RAFIDPLGL (modifications not checked) [… (PSM, position 673)], the binding affinity ratio (IC50 of standard peptide / IC50 of test peptide) is 0.0001.

Consider SAHDTTVSGL (modifications not checked) [… (PAP, position 287)], for which the binding affinity ratio (IC50 of standard peptide / IC50 of test peptide) is 0.0002.

Regarding SAVKNFTEI (modifications not checked) [… (PSM, position 634)], the binding affinity ratio (IC50 of standard peptide / IC50 of test peptide) is 0.0001.

On to RAASLSLGFL (modifications not checked) [… (PAP, position 10)], for which the binding affinity ratio (IC50 of standard peptide / IC50 of test peptide) was found to be 0.0002.

On to RLHPYKDFI (modifications not checked) [… (PAP, position 180)], for which the binding affinity ratio (IC50 of standard peptide / IC50 of test peptide) stood at 0.0006.

Turning to RAVCGGVLV (modifications not checked) [… (PSA, position 43)], the binding affinity ratio (IC50 of standard peptide / IC50 of test peptide) was 0.0002.

As for SIEPEEFLT (modifications not checked) [… (PSA, position 155)], the binding affinity ratio (IC50 of standard peptide / IC50 of test peptide) worked out at 0.0001.
